Data taken from article PMC8875297.
Read-outs that look alike come from different tables or passages of the source.

Substance | degradation_or_half_life (ubiquitination at K269) | degradation_or_half_life (phosphorylation at T286) | other (phosphorylation at T286)
cyclin D1: AMBRA1 depletion (siRNA, AMBRA1-/-, auxin-inducible degron) | decreases | – | –
cyclin D1: MLN4924 | decreases | – | –
cyclin D1: T286A | – | decreases | abolishes
